The source of these data is US20220213461A1.

For data set [1], the target named is biotinylated VyPAL2 (Viola yedoensis). The data set is described as follows: affinity binding of biotinylated enzyme to NeutrAvidin agarose beads, pH 6.5, 4 C 3 h; unbound protein measured by A280.
For data set [2], the target named is biotinylated butelase-1 (Clitoria ternatea). The data set is described as above.
Data set [3] addresses butelase-1 (active form extracted from Clitoria ternatea plant material) (Clitoria ternatea). The data set can be described thus: affinity binding of glycosylated enzyme to ConA agarose beads; unbound protein measured by A280.
Data set [4] shares this target. The data set can be described thus: affinity binding of glycosylated enzyme to ConA agarose beads, 4 C 3 h; unbound protein in flow-through measured by A280.
For data set [5], the target named is T1, GN14-SLAN (GISTKSIPPISYRNSLAN).
T1 chain: GISTKSIPPISYRNSLAN

In the case of “NeutrAvidin (deglycosylated avidin) on agarose beads (from UniProt P02701 25-152)”, the values for the Yield (%) (observed / expected maximal concentration on beads) in data set [1] and in data set [2] were 45% and 49%, respectively. Take “Concanavalin A (ConA) on agarose beads (from UniProt P02866 30-281)”: in data set [3], the percent of enzyme remaining in the solution (unbound) was found to be 61%. In data set [4], this molecule gave a Yield (%) (observed / expected maximal concentration on beads) of 39%.

B1: VyPAL2 (recombinant, insect-cell expressed, acid-activated active form) (protein)
chain: STNDDDSIGTRWAVLIAGSKGYHNYRHQADVCHMYQILRKGGVKDENIIVFMYDDIAYNESNPFPGIIINKPGGENVYKGVPKDYTGEDINNVNFLAAILGNKSAIIGGSGKVLDTSPNDHIFIYYADHGAPGKIGMPSKPYLYADDLVDTLKQKAATGTYKSMVFYVEACNAGSMFEGLLPEGTNIYAMAASNSTEGSWITYCPGTPDFPPEFDVCLGDLWSITFLEDCDAHNLRTETVHQQFELVKKKIAYASTVSQYGDIPISKDSLSVYMGTDPANDNRTFVDEN
For B1, the “catalytic efficiency (kcat/KM) of cyclization, HPLC-based kinetics, pH 6.5, 37 C” value in data set [5] is given as 274,325 M^-1s^-1.

B2: butelase-1 (active form extracted from Clitoria ternatea plant material) (protein)
chain: VEGTRWAVLVAGSKGYVNYRHQADVCHAYQILKKGGLKDENIIVFMYDDIAYNESNPHPGVIINHPYGSDVYKGVPKDYVGEDINPPNFYAVLLANKSALTGTGSGKVLDSGPNDHVFIYYTDHGGAGVLGMPSKPYIAASDLNDVLKKKHASGTYKSIVFYVESCESGSMFDGLLPEDHNIYVMGASDTGESSWVTYCPLQHPSPPPEYDVCVGDLFSVAWLEDCDVHNLQTETFQQQYEVVKNKTIVALIEDGTHVVQYGDVGLSKQTLFVYMGTDPAN
On to B2, for which, in data set [5], the “catalytic efficiency (kcat/KM) of cyclization, HPLC-based kinetics, pH 6.5, 37 C” value is listed as 971,936 M^-1s^-1.
